The target in the assay is patched (on patched-transfected EBNA-293 cells). Put plainly: FACS competition with Shh-Ig on patched-transfected EBNA-293 cells.

Usually IC50 stands for the midpoint of a concentration-inhibition curve.

On to “soluble human Sonic hedgehog N-terminal fragment (unmodified, produced in E. coli) (from UniProt Q14623 28-201) (ligand)”, for which the IC50 was 0.15 µg/mL. Under “tethered human Sonic hedgehog (N-terminal palmitoyl, C-terminal cholesterol) purified from High Five insect cells (from UniProt Q14623 28-201) (ligand)” stands 0.4 µg/mL.

These data come from EP1577321A1.
